The numbers were not newly measured in article PMC8961861, which cites them from elsewhere.

For the data set, the target named is Drebrin 1-300 (Homo sapiens) (UniProt Q16643). The data set can be described thus: NMR.
Sequence of UniProt Q16643 (Q16643 1-300): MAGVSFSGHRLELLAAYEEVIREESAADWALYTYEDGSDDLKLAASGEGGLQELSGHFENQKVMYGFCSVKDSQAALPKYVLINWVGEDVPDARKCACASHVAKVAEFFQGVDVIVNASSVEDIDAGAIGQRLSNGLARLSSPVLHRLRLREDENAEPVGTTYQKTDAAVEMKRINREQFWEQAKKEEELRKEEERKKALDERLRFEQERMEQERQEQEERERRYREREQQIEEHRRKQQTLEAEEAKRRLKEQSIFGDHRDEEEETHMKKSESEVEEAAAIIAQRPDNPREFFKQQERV

As usually defined, the Kd is a measure of binding affinity in units of concentration. As to Cx43CT 236-382 (from UniProt P08050), the Kd was 300 µM.
